From the supplement of paper PMC9112550, “Optimization of the antimicrobial peptide Bac7 by deep mutational scanning” (BMC Biology, 2022) come the findings set out here.

The test system of this data set is Escherichia coli TOP10. As to the kind of experiment: shrunken log2 fold change of peptide-encoding DNA abundance (4.5 h post-induction vs induction); higher = less antimicrobial activity (less host growth inhibition). To be noted: time post-induction: 4.5 h; library: site-saturation at positions 5, 18, 19, 20.
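Further: peptides expressed intracellularly from a pBAD plasmid library in pooled LB shake-flask culture, induced with 0.3% L-arabinose, DNA abundance read by NGS, three biological replicates, DESeq2 with apeglm shrinkage.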

For RRIRRRPPRLPRPRPRPEMEPRP, the “shrunken log2 fold change” value came to 0.0355. Turning to RRIRHRPPRLPRPRPRPVNRPRP, the “shrunken log2 fold change” value is -0.26. Under RRIRHRPPRLPRPRPRPTGQPRP stands 0.0378; under RRIRKRPPRLPRPRPRPIMHPRP, -0.204. On to RRIRFRPPRLPRPRPRPFTPPRP, for which the “shrunken log2 fold change” value is -0.358.

For the sequence RRIRWRPPRLPRPRPRPRLCPRP, the “shrunken log2 fold change” value came out at 0.512. As to RRIRWRPPRLPRPRPRPCLIPRP, the “shrunken log2 fold change” value is -0.151. Under RRIRCRPPRLPRPRPRPNKPPRP stands 0.0511.

Take RRIRPRPPRLPRPRPRPSYKPRP: the “shrunken log2 fold change” value was -0.564.

Turning to RRIRARPPRLPRPRPRPDIHPRP, the “shrunken log2 fold change” value is 0.145.

Turning to RRIRYRPPRLPRPRPRPKQEPRP, the “shrunken log2 fold change” value is -0.017. Regarding RRIRNRPPRLPRPRPRPRFCPRP, the “shrunken log2 fold change” value stood at 0.254. The same measure for RRIRTRPPRLPRPRPRPVYTPRP: -1.09; for RRIRMRPPRLPRPRPRPKGFPRP: 0.00502; for RRIRRRPPRLPRPRPRPESKPRP: 0.265. Under RRIRGRPPRLPRPRPRPEPTPRP stands 1.52; under RRIRMRPPRLPRPRPRPDSIPRP, 0.0402; under RRIRMRPPRLPRPRPRPFFHPRP, -0.243. Under RRIRLRPPRLPRPRPRPAMGPRP stands 0.248; under RRIRRRPPRLPRPRPRPLKRPRP, 0.161. Turning to RRIRSRPPRLPRPRPRPYKVPRP, the “shrunken log2 fold change” value was -0.0179.

Regarding RRIRNRPPRLPRPRPRPYMYPRP, the “shrunken log2 fold change” value stood at 0.0369. Regarding RRIRFRPPRLPRPRPRPTNHPRP, the “shrunken log2 fold change” value is -0.536. Regarding RRIRMRPPRLPRPRPRPVVEPRP, the “shrunken log2 fold change” value came to 0.719. Regarding RRIRARPPRLPRPRPRPMHVPRP, the “shrunken log2 fold change” value is -0.0248. The same measure for RRIRARPPRLPRPRPRPAHYPRP: 0.095.

Regarding RRIRERPPRLPRPRPRPMDGPRP, the “shrunken log2 fold change” value was 0.0211. The same measure for RRIRKRPPRLPRPRPRPDPFPRP: -0.0704; for RRIRVRPPRLPRPRPRPEGAPRP: 0.451; for RRIRYRPPRLPRPRPRPWYLPRP: -0.268. The same measure for RRIRGRPPRLPRPRPRPTSDPRP: 0.931. Under RRIRCRPPRLPRPRPRPVGAPRP stands 0.622; under RRIRMRPPRLPRPRPRPHKPPRP, 0.0226. For the sequence RRIRHRPPRLPRPRPRPYELPRP, the “shrunken log2 fold change” value is -0.116. Under RRIRMRPPRLPRPRPRPPMYPRP stands -0.0977; under RRIRGRPPRLPRPRPRPCETPRP, 0.496; under RRIRYRPPRLPRPRPRPLHEPRP, -0.343. With RRIRSRPPRLPRPRPRPVTFPRP, the “shrunken log2 fold change” value is -0.21. For the sequence RRIRSRPPRLPRPRPRPPMSPRP, the “shrunken log2 fold change” value is -0.0301.

Turning to RRIRHRPPRLPRPRPRPYCVPRP, the “shrunken log2 fold change” value is -0.154. The same measure for RRIRPRPPRLPRPRPRPQFCPRP: -0.153; for RRIRARPPRLPRPRPRPEKTPRP: 0.38.

As to RRIRTRPPRLPRPRPRPCTQPRP, the “shrunken log2 fold change” value was -0.123. Under RRIRMRPPRLPRPRPRPLNDPRP stands 0.106; under RRIRKRPPRLPRPRPRPNNLPRP, -0.218.

With RRIRKRPPRLPRPRPRPQKIPRP, the “shrunken log2 fold change” value was -0.0746. Under RRIRKRPPRLPRPRPRPTKIPRP stands 0.269; under RRIRMRPPRLPRPRPRPMGHPRP, -0.032. The same measure for RRIRRRPPRLPRPRPRPAMFPRP: 0.372; for RRIRIRPPRLPRPRPRPGVGPRP: 0.435; for RRIRYRPPRLPRPRPRPMAQPRP: -0.0848. The same measure for RRIRDRPPRLPRPRPRPFMCPRP: -0.0266.

As to RRIRVRPPRLPRPRPRPVIFPRP, the “shrunken log2 fold change” value was -0.0885.

Turning to RRIRNRPPRLPRPRPRPSPYPRP, the “shrunken log2 fold change” value is -0.507. For the sequence RRIRCRPPRLPRPRPRPTYAPRP, the “shrunken log2 fold change” value came to 0.125. The same measure for RRIRKRPPRLPRPRPRPNMAPRP: 0.00469; for RRIRVRPPRLPRPRPRPKTLPRP: -0.0985; for RRIRWRPPRLPRPRPRPMFRPRP: -0.129. On to RRIRIRPPRLPRPRPRPGFNPRP, for which the “shrunken log2 fold change” value was -0.135. For the sequence RRIRGRPPRLPRPRPRPRGNPRP, the “shrunken log2 fold change” value was 0.995. As to RRIRLRPPRLPRPRPRPLQYPRP, the “shrunken log2 fold change” value is -0.316. The same measure for RRIRGRPPRLPRPRPRPGASPRP: 0.934. The same measure for RRIRKRPPRLPRPRPRPWCLPRP: -0.503; for RRIRARPPRLPRPRPRPDETPRP: 0.00253. Regarding RRIRWRPPRLPRPRPRPRILPRP, the “shrunken log2 fold change” value worked out at 0.188.

Regarding RRIRRRPPRLPRPRPRPKCRPRP, the “shrunken log2 fold change” value was 0.453. Take RRIRRRPPRLPRPRPRPTIFPRP: the “shrunken log2 fold change” value came to 0.149. The same measure for RRIRPRPPRLPRPRPRPVAVPRP: 0.143; for RRIRERPPRLPRPRPRPLNYPRP: -0.176.

Turning to RRIRGRPPRLPRPRPRPQDMPRP, the “shrunken log2 fold change” value stood at 0.0811.

As for RRIRERPPRLPRPRPRPMIEPRP, the “shrunken log2 fold change” value was -0.184. On to RRIRFRPPRLPRPRPRPLCDPRP, for which the “shrunken log2 fold change” value was -0.196. The same measure for RRIRSRPPRLPRPRPRPGIRPRP: 0.694; for RRIRTRPPRLPRPRPRPNKSPRP: -0.315; for RRIRPRPPRLPRPRPRPDTGPRP: 0.128. RRIRERPPRLPRPRPRPRRWPRP: the “shrunken log2 fold change” value was 0.267.

As for RRIRIRPPRLPRPRPRPQSFPRP, the “shrunken log2 fold change” value amounted to 0.0784. Under RRIRCRPPRLPRPRPRPWLFPRP stands -0.179; under RRIRDRPPRLPRPRPRPCGVPRP, 0.0765. For the sequence RRIRCRPPRLPRPRPRPLDEPRP, the “shrunken log2 fold change” value is 0.151. For RRIRVRPPRLPRPRPRPIELPRP, the “shrunken log2 fold change” value is -0.167. The same measure for RRIRQRPPRLPRPRPRPEPLPRP: 0.287. Under RRIRWRPPRLPRPRPRPPDFPRP stands -0.087. Under RRIRCRPPRLPRPRPRPCVIPRP stands -0.334.

As to RRIRSRPPRLPRPRPRPGTWPRP, the “shrunken log2 fold change” value amounted to 0.358. Turning to RRIRARPPRLPRPRPRPAENPRP, the “shrunken log2 fold change” value came to 0.865. The same measure for RRIRWRPPRLPRPRPRPVIWPRP: 0.147; for RRIRWRPPRLPRPRPRPWGEPRP: 0.039; for RRIRFRPPRLPRPRPRPLSFPRP: 0.675. As for RRIRVRPPRLPRPRPRPTLWPRP, the “shrunken log2 fold change” value was determined as 0.259. The same measure for RRIRRRPPRLPRPRPRPQGRPRP: 0.544. For the sequence RRIRHRPPRLPRPRPRPCPVPRP, the “shrunken log2 fold change” value is -0.0628. For the sequence RRIRMRPPRLPRPRPRPDNQPRP, the “shrunken log2 fold change” value amounted to 0.0198. Take RRIRTRPPRLPRPRPRPVNRPRP: the “shrunken log2 fold change” value was -0.0356. The same measure for RRIRKRPPRLPRPRPRPYPHPRP: -0.207. The same measure for RRIRFRPPRLPRPRPRPKCFPRP: -0.108; for RRIRMRPPRLPRPRPRPTYRPRP: 0.422. The same measure for RRIRCRPPRLPRPRPRPMFQPRP: -0.151. Consider RRIRQRPPRLPRPRPRPRRDPRP, for which the “shrunken log2 fold change” value is 0.308. Under RRIRCRPPRLPRPRPRPCNIPRP stands -0.3; under RRIRNRPPRLPRPRPRPPDNPRP, -0.146; under RRIRRRPPRLPRPRPRPVGNPRP, -0.0457.

Take RRIRCRPPRLPRPRPRPQCCPRP: the “shrunken log2 fold change” value turned out to be 0.254. Regarding RRIRCRPPRLPRPRPRPKAIPRP, the “shrunken log2 fold change” value was -0.0563. Under RRIRSRPPRLPRPRPRPHFPPRP stands -0.397. The same measure for RRIRPRPPRLPRPRPRPAFAPRP: 0.374; for RRIRERPPRLPRPRPRPETCPRP: -0.127; for RRIRMRPPRLPRPRPRPNATPRP: 2.16. As for RRIRLRPPRLPRPRPRPMEAPRP, the “shrunken log2 fold change” value was -0.00122. Take RRIRMRPPRLPRPRPRPICPPRP: the “shrunken log2 fold change” value is -0.123. The same measure for RRIRMRPPRLPRPRPRPTGDPRP: 1.3. Under RRIRFRPPRLPRPRPRPPWKPRP stands 0.154; under RRIRMRPPRLPRPRPRPQHSPRP, -0.183; under RRIRFRPPRLPRPRPRPKHDPRP, -0.168. Under RRIRTRPPRLPRPRPRPYDCPRP stands -0.304; under RRIRIRPPRLPRPRPRPLSLPRP, -0.868; under RRIRSRPPRLPRPRPRPKQLPRP, 0.0372. As to RRIRPRPPRLPRPRPRPPLPPRP, the “shrunken log2 fold change” value amounted to 0.814.

As to RRIRIRPPRLPRPRPRPEQEPRP, the “shrunken log2 fold change” value stood at 0.0276.

For the sequence RRIRHRPPRLPRPRPRPISVPRP, the “shrunken log2 fold change” value is -0.00149. As to RRIRQRPPRLPRPRPRPTMFPRP, the “shrunken log2 fold change” value was -0.208. As to RRIRRRPPRLPRPRPRPMSFPRP, the “shrunken log2 fold change” value was -0.0277. Under RRIRSRPPRLPRPRPRPTVNPRP stands -0.477; under RRIRPRPPRLPRPRPRPSTQPRP, -0.355.

RRIRVRPPRLPRPRPRPYWCPRP: the “shrunken log2 fold change” value was -0.409.
